What was measured:
[1] = system: MDA-MB-231 cells (human breast cancer cells); type: in vivo; details: VP101(hG1DM) 3 mg/kg weekly, olaparib 50 mg/kg daily, alone or in combination; FIG. 39
Text: 23 days after grafting, the mice were randomly divided into 4 groups of 6 animals by tumor volume. The day of grouping was defined as DO, and olaparib dosing was started on day D0. […] The regimen of the combination therapy group is as follows: the drugs were formulated separately and administered sequentially (no certain order or time interval was required, and one treatment should be given after the completed administration of the other). After the administration, the length and width of tumors in each group were measured, and the tumor volume was calculated.

[2] = system: SK-OV-3 human ovarian cancer cells; type: in vivo; details: VP101(hG1DM) 14 mg/kg weekly, olaparib 100 mg/kg daily, alone or in combination; FIG. 41
Text: 39 days after grafting, the mice were intraperitoneally injected with 3 million activated PBMCs and randomly divided into 4 groups of 6 animals by tumor volume. The day of grouping was defined as D0, and dosing was started on the day of grouping D0. The regimen of the combination therapy group is as follows: the drugs were formulated separately and administered sequentially (no certain order or time interval was required, and one treatment should be given after the completed administration of the other). After the administration, the length and width of tumors in each group were measured, and the tumor volume was calculated.

[3] = system: CHO-K1-PD1 cells overexpressing PD-1; test: ADCP activity assay, murine macrophages and CHO-K1-PD1 cells, flow cytometry; type: cell-based; details: murine macrophages + CHO-K1-PD1-CFSE cells, antibody 10, 1 and 0.1 μg/mL, 2 h, vs isotype control; FIG. 35
Protocol: The method is as follows:
The femoral bone marrow of C57 mice (purchased from Guangdong Medical Laboratory Animal Center) was first aseptically collected and lysed by erythrocyte lysis buffer on ice for 5 min. The lysis was terminated with DMEM complete medium (containing 10% FBS), and the lysate was centrifuged at 1000 rpm and washed twice. The cell pellet was resuspended in 10 mL of DMEM complete medium and M-CSF was added at a working concentration of 100 ng/mL. The cells were cultured for 7 days at 37° C. and 5% CO2 in a cell culture chamber for induction. Half of the medium was exchanged and M-CSF was added on Days 3 and 5. The induction of cells was completed on day 7. […] The supernatant was discarded and the cells were suspended in DMEM complete medium (containing 10% FBS) and counted. […] CHO-K1-PD1 cells were collected by conventional methods, centrifuged at 170×g for 5 min, resuspended, counted, analyzed for viability and washed once with PBS. […] The cells were counted, transferred to a 96-well plate and centrifuged at 1000×g for 5 min, and the supernatant was discarded. […]
Macrophages in the system were APC^+ positive, and macrophages involved in phagocytosis were APC and CFSE dual positive. The phagocytosis rate was determined as the ratio of the number of dual positive cells to the number of APC positive cells, and the antibody-mediated ADCP activity was evaluated. […]

[4] = molecular target: FcγRI (Homo sapiens, UniProt P12314); test: Affinity constant assay to FcγRI (Fortebio Octet); details: N/A = no binding or extremely weak binding signal
Sequence of FcγRI (P12314 16-374): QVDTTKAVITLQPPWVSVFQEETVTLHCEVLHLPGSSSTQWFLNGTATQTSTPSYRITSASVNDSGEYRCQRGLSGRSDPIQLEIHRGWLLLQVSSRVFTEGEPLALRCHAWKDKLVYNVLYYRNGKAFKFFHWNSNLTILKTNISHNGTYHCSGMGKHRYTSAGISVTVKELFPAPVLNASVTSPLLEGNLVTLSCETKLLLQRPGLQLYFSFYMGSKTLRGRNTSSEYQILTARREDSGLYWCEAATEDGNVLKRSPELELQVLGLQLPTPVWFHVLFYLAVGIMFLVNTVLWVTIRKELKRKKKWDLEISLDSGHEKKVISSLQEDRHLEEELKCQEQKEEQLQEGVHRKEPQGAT
Protocol: 1 μg/mL FcγRIa was immobilized on the HIS1K sensor for 50 s. The sensor was equilibrated in a buffer for 60 s, and the binding of the immobilized CD64 on the sensor to the antibodies at concentrations of 3.12-50 nM (two-fold dilution) was determined for 120 s. The antibody was dissociated in the buffer for 120 s. The sensor was refreshed 4 times in 10 mM glycine pH 1.5, each for 5 s. The detection temperature was 30° C. and the frequency was 0.3 Hz. The data were analyzed by 1:1 model fitting to obtain affinity constants.

[5] = molecular target: T1, FcγRIIa_H131 (Homo sapiens, UniProt P12318); test: Affinity constant assay to FcγRIIa_H131 (Fortebio Octet); details: FcγRIIa_H131 immobilized on NTA sensor, antibody 12.5-200 nM, 30° C., 1:1 model; N/A = no binding or extremely weak binding signal
T1 sequence (P12318 34-217 limits assumed): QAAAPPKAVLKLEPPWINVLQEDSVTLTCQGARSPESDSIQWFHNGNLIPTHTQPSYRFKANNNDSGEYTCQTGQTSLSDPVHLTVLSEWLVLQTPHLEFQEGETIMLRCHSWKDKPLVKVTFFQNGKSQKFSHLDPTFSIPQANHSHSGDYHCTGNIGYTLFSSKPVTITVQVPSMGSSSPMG
Protocol: The antibody was dissociated in the buffer for 60 s. The sensor was refreshed in 10 mM glycine pH 1.7 and 10 nM nickel sulfate. […] The data were analyzed by 1:1 model fitting to obtain affinity constants.

[6] = molecular target: FcγRIIIa_F158 (Homo sapiens, UniProt P08637); test: Affinity constant assay to FcγRIIIa_F158 (Fortebio Octet); details: FcγRIIIa_F158 immobilized on HIS1K sensor, antibody 31.25-500 nM, 30° C., 1:1 model; N/A = no binding or extremely weak binding signal
Sequence of FcγRIIIa_F158 (P08637 17-208 limits assumed): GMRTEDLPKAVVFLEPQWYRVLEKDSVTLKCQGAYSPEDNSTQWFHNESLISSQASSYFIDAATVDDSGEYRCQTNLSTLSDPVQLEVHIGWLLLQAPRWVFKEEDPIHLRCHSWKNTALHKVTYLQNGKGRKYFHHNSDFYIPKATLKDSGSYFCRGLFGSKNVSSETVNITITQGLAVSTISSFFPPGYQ
Protocol: 5 μg/mL FcγRIIIa_F158 was immobilized on the HIS1K sensor for 120 s. The sensor was equilibrated in a buffer for 60 s, and the binding of the immobilized hFcGR3A(F158)-his on the sensor to the antibodies at concentrations of 31.25-500 nM (serial two-fold dilution) was determined for 60 s. The antibody was dissociated in the buffer for 60 s. The sensor was refreshed 4 times in 10 mM glycine pH 1.5, each for 5 s. The detection temperature was 30° C. and the frequency was 0.3 Hz. The data were analyzed by 1:1 model fitting to obtain affinity constants.

[7] = molecular target: C1q (Homo sapiens, UniProt P02745+P02746+P02747); test: Affinity constant assay to C1q (Fortebio Octet); details: antibody immobilized on FAB2G sensor, C1q 0.625-10 nM, 30° C., 1:1 model; N/A = no binding or extremely weak binding signal
Sequence of C1q (P02745 23-245): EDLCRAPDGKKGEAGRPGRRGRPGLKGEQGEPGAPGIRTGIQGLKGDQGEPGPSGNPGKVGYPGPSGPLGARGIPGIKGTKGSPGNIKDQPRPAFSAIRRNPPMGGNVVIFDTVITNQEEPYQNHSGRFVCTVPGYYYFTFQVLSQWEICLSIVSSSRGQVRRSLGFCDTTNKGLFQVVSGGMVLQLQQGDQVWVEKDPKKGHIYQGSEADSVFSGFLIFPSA
Sequence of C1q (P02746 28-253): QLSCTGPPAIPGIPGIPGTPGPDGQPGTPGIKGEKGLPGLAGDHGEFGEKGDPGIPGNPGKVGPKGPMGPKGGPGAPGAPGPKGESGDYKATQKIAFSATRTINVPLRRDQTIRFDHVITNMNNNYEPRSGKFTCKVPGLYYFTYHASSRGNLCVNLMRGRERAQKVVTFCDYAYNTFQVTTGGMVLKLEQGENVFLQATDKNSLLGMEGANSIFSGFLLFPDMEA
Sequence of C1q (P02747 29-245): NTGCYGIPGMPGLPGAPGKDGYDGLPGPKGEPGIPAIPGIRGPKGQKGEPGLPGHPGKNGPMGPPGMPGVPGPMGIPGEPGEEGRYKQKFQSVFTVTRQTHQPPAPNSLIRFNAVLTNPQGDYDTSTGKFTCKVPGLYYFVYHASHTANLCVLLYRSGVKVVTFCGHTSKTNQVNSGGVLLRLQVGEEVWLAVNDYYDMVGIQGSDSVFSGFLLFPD
Protocol: 50 μg/mL antibody was immobilized on the FAB2G sensor at an immobilization height of about 2.0 nm. […] The antigen and antibody were dissociated in the buffer for 60 s. The sensor was refreshed 4 times in 10 mM glycine pH 1.7, each for 5 s. The shaking speed of the sample plate was 1000 rpm, the temperature was 30° C. and the frequency was 0.6 Hz. The data were analyzed by 1:1 model fitting to obtain affinity constants. The data acquisition software was Fortebio Data Acquisition 7.0, and the data analysis software was Fortebio Data Analysis 7.0.

O=C(c1cc(Cc2n[nH]c(=O)c3ccccc23)ccc1F)N1CCN(C(=O)C2CC2)CC1 [olaparib]
tolerability / body weight of tumor-bearing mice [1]: no effect on the body weight
tolerability / body weight of tumor-bearing mice [2]: no effect on the body weight

Nivolumab: approved PD-1 antibody (Opdivo) purchased from BMS as a reference antibody
ADCP activity (phagocytic rate, P %) [3]: significant ADCP effect
Kd ([4]; FcγRIa immobilized on HIS1K sensor, antibody 3.12-50 nM, 30° C., 1:1 model): 6.2 nM
Rmax to FcγRI [4]: 0.48-0.53 nm
kdis to FcγRI [4]: 0.00432 s⁻¹
KD (affinity constant) to FcγRIIa_H131 [5]: no binding or an extremely weak binding signal
KD (affinity constant) to FcγRIIIa_F158 [6]: no binding or an extremely weak binding signal
KD (affinity constant) to C1q [7]: no binding or an extremely weak binding signal
